Test: soluble on expression in E. coli; label from the status in PepcDB or PDB records

Sequence | soluble on expression in E. coli
MKEGMKVVLVGSPGIEGTWILAKDYDQLLLEKGISREIIEKAKEFKKDIVVQPKALSILDYVVAMHDATEGGIMQAMLEVAKASGYTVSINLDKIVLRRETKIITKALNIDPLRLISSGSFIAVSNTPEKILERISEAYIIGEIKRGDPVLEIK | soluble
MGPTQETYTIVRYQSGTFSKQLDEIVTESPITIKLNGEEYVTVVCTPNYIEDMVIGFLISEGIISSYNDVEELWVQKDNGIVHVKSSKVNPLYQTLYNKRYVTSCCGKGRQGFIFVNDAAKAKDLHDIHVKITPEECFYLMNTLQQSSTTFRQTGGVHNTALCDRNKILLSRMDIGRHNALDKIYGHCLRNDISVKGKIIAFSGRISSEILLKVSKIGCEIVLSKSAPTKLALQLAHDLGITVVGFIRNESCNIYTHPHRIDGYQSNNLEHHHHHH | soluble
MEYSNFFDDLKSNIIGQYEECKAYRILCESQGYNPSEHLRSEKDITNIPFLATTLFKKSANLFLSLLRVEPDKLDKWTLSSSTSGDPSMVGRRNSDLMQIRKFVLMDDKFYDSASEYNCVFYPEPKVMREYKSVRIMDKPTESYIGNLLGIFDFSENTTFLLKSCGEGFSVDMNSFEEFLKFNNERNNHLSLRGSTLLLYNAVLELKKQGKGPYNLGSRAIVHTGGGGWDGKKGNISIGTKIERYQFVEEISEFLGIPQKNFRDTYSFTENTFPMDGHYSEKLRSYLFHVPTWGRVIIRDVKTLEPLNKPGDRGLVQVLNAYGTSSFAGASILVDDIAEIVANDSCPECKHEGMTFKIVGRVKGSEAKGCGATLDVRGKQKLEHHHHHH | soluble
MLRWIVLICISLFLPLSAYADKSDCINHHCIAVIDAGSSSSRLHIYAYDLDETNTPIAIREIWNRKAVPGLPTIEHENKSVSAYMEKLFSDAPAVLMPVYFYSTAGMRLLPKTHHRNVNQLVAEWFDRQYYWRLVTARTISGTEEGIFAWLATNYQLNLFQQEPQTLAGVMDIGGASVQIVIPVVNPSFMDHEHTTTIRLYGKEFTVFSHSFLGLGQNEMGHQFFDLKFCFPEEYELPSGRQARGDAYACKDEIAILVNSVHSVSRKIKSVLAANPIEKWYILGGITFMLNDKLFSLDNQYFTNRDLISYADQNICHQKWSTLEVLYPDNLMVFNYCMLPSYLYALLVHGYGLKSYQKVNFMPNSKNIDWTLGVVLQHKQSAAALEHHHHHH | not soluble
MSLSIAKNIENDPSKGWVVQKFGGTSVGKFPIKIAVDVAKEYLSTKRVALVCSARSTDTKAEGTTTRLIRATEAALRPAVGSVHDLVRIIETDHVQAARDFIQDVGIQDELIDAFHADCVELEQYLNAIRVLSEVSPRTRDLVIGMGERLSCRFMAAVLKDQGIDSEFIDMSHIIDEQREWRNLDASFYAYLASQLASKVTAVGNKVPVVTGFFGMVPGGLLSQIGRGYTDFCAALLAVGLNADELQIWKEVDGIFTADPRKVPTARLLPLITPEEAAELTYYGSEVIHPFTMSQVVHARIPIRIKNVGNPRGKGTVIFPDTISRHGSATPPHPPKIMPDDISASLANKGATAVTIKDTIMVINIQSNRKISAHGFLASIFAILDKYKLAVDLITTSEVHVSMALYEESDDGNMHEAFVELRRLGTLDILHGLAILSLVGKHMRNTTGYAGRMFCKLAEAQINIEMISQGASEINISCVIDEKMAVKALNVIHKELLEPLALHEVPSQASMLVEKPWLYSAEGHHHHHH | soluble
MSLSDNVVTSKVGNVTEKELSKELRQQYGESTLYQMMLSKALLDKYKVSDEEAKKKVEEAKDKMGENFKSTLEQLGLKNEDELKEKMKPEIAFEKAIKATVTDKDVKNNYKPEMKVSHILVKDEKTAKEIKEKVNNGEDFAALANQYSEDTGSKEQGGEISGFAPGQTVKEFEEAAYKLDAGQVSDPVKTTYGYHIIKVTDKKELKPFDEVKDKIRKDIEQQRLQDTTGKWKQQVVNDLLKDADIKVNNKEFKDTFKFLEKEGHHHHHH | soluble
MIDKHVACERPLTVYLNWRPIVTLMTLGAKPESLALGYLKNQGFISDVSQLESVIVDWGVNSAAVLTREQTADIDKKLSEKTVTSGCGQGTVYGSFMQDLEGIQLPRPSLKQSTLYSLLKNINEYNDTYKNAGAVHGCGVCEADQILAFVEDVGRHNAVDTLAGDMWLAQDRGDNKIFYTTGRLTSEMVIKVAKMGIPVLLSRSGVTQMGLELAQNLGITIIARAKGRHFLVYHGSENLEFDVNTSPSKLEHHHHHH | not soluble
MNVDEDCYFASLTHGLNTDCRRANAKMKETLKNYNFSAFLVEQNCLRCPNNDCNLSFVLILQKTEFFRLKRDVVFEVRPTIVVHRSFKELVSADRKIRQDITEKNTVGVQASVETVNKFVDACPSICNIQSQTDIMAEKMHIGIQTEEVKFVSEISALGITEVECQNVFPTSFIKTEPVSTSPVRTMEVQQDNDDDDVMFIEIRPRIHEFPSTREIKQEENTTEDTVHLEKVIPEDSVRDVKDEPISEPVEQETSSSSISKELGDSGSSKFSDVADNHTASLNLSMLSQRSTVTSSSISQSIPTPRGRDTPSAAKRAKFSDVEMCRICWDVTFFTTLEEYCNHVQDRHCSVARFKCSSCERKFWDIRSGTQHLKAHNEDGAGNSISHILPEISEEHLSKFINVANQCYPETFRNTQSEKILDIINALP | not soluble
MENSGHKVYYCMGSPLFALNAGRMENNLVAFSGGLSINKQLQKEGKPGINVSPSFINENNPDTIFISGFLSRPLDEFYTLCRQYGIETDAVKQQRVYEVPPSWDFGNPRWILGLMYIADKLYPGNSGIDLEKEADEFYRQFYGMPYLEHHHHHH | soluble
VKVQPNDYVFRDLANHNQIFVKDKDPKVYNNPYYIDQVQLKDAQQTDLTSIQASFTTLDGVDKTEILKELKVTDKNQNAIQISDITLDTSKSLLIIKGDFNPKQGHFNISYNGNNVTTRQSWEFKDQLYAYSGNLGAVLNQDGSKVEASLWSPSADSVTMIIYDKDNQNRVVATTPLVKNNKGVWQTILDTKLGIKNYTGYYYLYEIKRGKDKVKILDPYAKSLAEWDSNTVNDDIKTAKAAFVNPSQLGPQNLSFAKIANFKGRQDAVIYEAHVRDFTSDQSLDGKLKNQLGTFAAFSEKLDYLQKLGVTHIQLLPVLSYFYVNEMDKSRSTAYTSSDNNYNWGYDPQSYFALSGMYSEKPKDPSARIAELKQLIHDIHKRGMGVILDVVYNHTAKTYLFEDIEPNYYHFMNEDGSPRESFGGGRLGTTHAMSRRVLVDSIKYLTSEFKVDGFRFDMMGDHDAAAIELAYKEAKAINPNMIMIGEGWRTFQGDQGKPVKPADQDWMKSTDTVGVFSDDIRNSLKSGFPNEGTPAFITGGPQSLQGIFKNIKAQPGNFEADSPGDVVQYIAAHDNLTLHDVIAKSINKDPKVAEEDIHRRLRLGNVMILTSQGTAFIHSGQEYGRTKRLLNPDYMTKVSDDKLPNKATLIEAVKEYPYFIHDSYDSSDAINHFDWAAATDNNKHPISTKTQAYTAGLITLRRSTDAFRKLSKAEIDREVSLITEVGQGDIKEKDLVIAYQTIDSKGDIYAVFVNADSKARNVLLGEKYKHLLKGQVIVDADQAGIKPISTPRGVHFEKDSLLIDPLTAIVIKVGKVAPSPKEELQADYPKTQSFKGSKTVEKVNRIANKTSITPVVSNKTDSYLTNEANLEHHHHHH | soluble
MNELTGADFKSATADDNKKLFIETYGCQMNVADSEVIASVMQMAGYSVAETLEEADAVFMNTCSIRDNAEQKILNRLEFFHSMKKKKKHLIVGVLGCMAERVKDDLIEHHHVDLVVGPDAYLTLPELIASVEAGEKAMNVELSTTETYRDVIPSRICGNHISGFVSIMRGCNNFCTYCIVPYTRGRERSRDVESILNEVADLVSKGYKEITLLGQNVNSYRFEKEGGEVVTFPMLLRLVAEAAPGIRVRFTTSHPKDMSDETLEVIAQVPNVCKHIHLPVQSGSSRILKLMNRKYTREWYLDRVAAIKRIVPDCGLTTDIFSGFHSETEEDHRESLSLMEACGYDAAFMFKYSERPGTYASKHLEDNVPEEIKVRRLNEIIALQNRLSAESNNRCIGKTYEVLVEGVSKRSRDQLFGRTEQNRVVVFDRGTHRIGDFVNVRITEASSATLKGEEVFSLEHHHHHH | not soluble
PQKICLICGDEASGCHYGVLTCGSCKVFFKRAMEGQHNYLCAGRNDCIVDKIRRKNCPACRLRKCCQAGMVLGGRKFK | soluble
SRLITHNMLSCNIKGVTSGFPLRIEAGNVIEKEVDFNPDFIRHMFAKIEWKALVEGARSMGYAELPEESPDAAVLKSDEPFLKKLHHALLELHLEEGALVCPETGRKFPVNKGIPNMLLHEDEV | soluble

Reference: the DeepSol protein solubility set
